{"source": "patent US20190134153A1", "about": "“IMMUNOMODULATORY EFFECT OF INHALED KINASE INHIBITOR PEPTIDES IN LUNG” (MOERAE MATRIX, INC., priority 2017, published 2019)", "test_in_all_cases": "Kinase Profiling Assay", "assay_type_in_all_cases": "biochemical", "details_in_all_cases": "100 μM", "key": {"ARK5(h)": {"biological_target": "T1, ARK5(h) (Homo sapiens, UniProt O60285)", "T1 sequence (O60285 1-661)": "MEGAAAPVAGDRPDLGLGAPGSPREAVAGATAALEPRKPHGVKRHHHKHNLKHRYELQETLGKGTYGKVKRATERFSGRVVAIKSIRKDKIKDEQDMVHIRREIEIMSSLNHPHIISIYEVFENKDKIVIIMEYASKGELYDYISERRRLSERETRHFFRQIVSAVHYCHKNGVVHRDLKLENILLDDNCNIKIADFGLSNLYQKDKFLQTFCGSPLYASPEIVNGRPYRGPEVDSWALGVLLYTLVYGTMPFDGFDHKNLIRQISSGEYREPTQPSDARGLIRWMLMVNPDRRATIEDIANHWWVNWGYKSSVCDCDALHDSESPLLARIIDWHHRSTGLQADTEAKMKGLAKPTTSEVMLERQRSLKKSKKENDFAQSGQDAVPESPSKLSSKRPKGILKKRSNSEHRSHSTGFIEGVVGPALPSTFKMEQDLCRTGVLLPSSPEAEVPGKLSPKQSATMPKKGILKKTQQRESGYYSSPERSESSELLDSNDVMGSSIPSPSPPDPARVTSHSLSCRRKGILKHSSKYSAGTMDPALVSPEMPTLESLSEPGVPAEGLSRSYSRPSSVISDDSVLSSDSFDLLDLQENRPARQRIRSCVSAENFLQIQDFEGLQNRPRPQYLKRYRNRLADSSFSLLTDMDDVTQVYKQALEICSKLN"}, "CaMKI(h)": {"biological_target": "CaMKI(h) (Homo sapiens, UniProt Q14012)", "sequence (Q14012 whole entry)": "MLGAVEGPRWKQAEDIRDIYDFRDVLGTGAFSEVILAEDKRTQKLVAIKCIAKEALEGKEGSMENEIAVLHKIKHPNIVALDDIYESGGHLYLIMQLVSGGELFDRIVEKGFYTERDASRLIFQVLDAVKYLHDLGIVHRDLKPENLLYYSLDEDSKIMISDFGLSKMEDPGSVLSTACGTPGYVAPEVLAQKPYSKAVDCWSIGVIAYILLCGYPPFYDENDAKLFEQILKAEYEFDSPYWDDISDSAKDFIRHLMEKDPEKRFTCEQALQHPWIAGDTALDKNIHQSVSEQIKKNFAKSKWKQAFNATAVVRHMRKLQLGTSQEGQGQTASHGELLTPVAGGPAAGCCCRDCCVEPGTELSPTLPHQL"}, "TAO2(h)": {"biological_target": "T2, TAO2(h) (Homo sapiens, UniProt Q9UL54)", "T2 sequence (Q9UL54 1-1235)": "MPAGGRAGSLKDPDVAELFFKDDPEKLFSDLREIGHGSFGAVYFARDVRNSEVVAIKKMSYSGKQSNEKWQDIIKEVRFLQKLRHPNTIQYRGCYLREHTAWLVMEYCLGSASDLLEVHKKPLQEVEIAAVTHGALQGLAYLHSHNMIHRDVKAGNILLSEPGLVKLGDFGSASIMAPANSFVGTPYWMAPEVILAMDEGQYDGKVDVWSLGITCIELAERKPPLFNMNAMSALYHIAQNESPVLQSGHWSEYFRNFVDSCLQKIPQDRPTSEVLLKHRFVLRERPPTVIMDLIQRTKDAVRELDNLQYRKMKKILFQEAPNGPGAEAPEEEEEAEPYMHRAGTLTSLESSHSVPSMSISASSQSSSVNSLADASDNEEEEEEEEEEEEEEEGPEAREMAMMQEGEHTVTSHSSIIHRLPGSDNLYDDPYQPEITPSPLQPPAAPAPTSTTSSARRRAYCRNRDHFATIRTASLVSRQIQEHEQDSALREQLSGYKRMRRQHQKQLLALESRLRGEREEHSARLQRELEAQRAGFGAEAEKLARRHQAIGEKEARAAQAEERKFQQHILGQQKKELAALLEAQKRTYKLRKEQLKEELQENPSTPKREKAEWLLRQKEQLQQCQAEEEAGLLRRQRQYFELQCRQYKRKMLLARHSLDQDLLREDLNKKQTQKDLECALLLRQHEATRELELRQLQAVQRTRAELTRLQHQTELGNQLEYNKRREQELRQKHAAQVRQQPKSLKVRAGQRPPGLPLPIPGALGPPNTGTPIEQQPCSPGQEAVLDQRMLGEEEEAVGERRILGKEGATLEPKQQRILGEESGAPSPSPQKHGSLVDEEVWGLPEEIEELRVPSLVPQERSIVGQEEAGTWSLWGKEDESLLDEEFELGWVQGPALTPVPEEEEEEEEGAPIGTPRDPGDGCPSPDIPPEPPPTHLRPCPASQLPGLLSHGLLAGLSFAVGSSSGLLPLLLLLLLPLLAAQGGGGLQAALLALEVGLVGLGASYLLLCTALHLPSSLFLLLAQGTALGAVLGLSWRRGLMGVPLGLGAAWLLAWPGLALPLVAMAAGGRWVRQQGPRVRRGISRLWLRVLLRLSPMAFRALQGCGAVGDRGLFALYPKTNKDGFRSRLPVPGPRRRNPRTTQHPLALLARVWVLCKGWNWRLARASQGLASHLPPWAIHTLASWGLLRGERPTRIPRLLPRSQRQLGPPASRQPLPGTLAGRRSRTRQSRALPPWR"}, "MST2(h)": {"biological_target": "T3, MST2(h) (Homo sapiens, UniProt Q13188)", "T3 sequence (Q13188 1-491)": "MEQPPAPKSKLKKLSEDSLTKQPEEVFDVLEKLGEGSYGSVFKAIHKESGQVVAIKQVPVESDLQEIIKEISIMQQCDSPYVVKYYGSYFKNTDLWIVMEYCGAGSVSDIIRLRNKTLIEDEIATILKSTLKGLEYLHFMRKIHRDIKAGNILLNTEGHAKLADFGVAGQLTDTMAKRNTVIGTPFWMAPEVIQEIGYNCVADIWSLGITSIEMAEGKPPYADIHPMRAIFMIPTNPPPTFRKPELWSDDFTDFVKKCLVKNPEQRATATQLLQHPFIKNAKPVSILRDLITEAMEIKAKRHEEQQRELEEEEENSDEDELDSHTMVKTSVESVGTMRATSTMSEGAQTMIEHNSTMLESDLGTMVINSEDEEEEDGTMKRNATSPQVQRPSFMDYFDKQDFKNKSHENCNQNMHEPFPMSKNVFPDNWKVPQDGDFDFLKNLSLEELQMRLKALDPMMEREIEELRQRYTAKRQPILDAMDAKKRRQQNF"}, "TSSK2(h)": {"biological_target": "T4, TSSK2(h) (Homo sapiens, UniProt Q96PF2)", "T4 sequence (Q96PF2 1-358)": "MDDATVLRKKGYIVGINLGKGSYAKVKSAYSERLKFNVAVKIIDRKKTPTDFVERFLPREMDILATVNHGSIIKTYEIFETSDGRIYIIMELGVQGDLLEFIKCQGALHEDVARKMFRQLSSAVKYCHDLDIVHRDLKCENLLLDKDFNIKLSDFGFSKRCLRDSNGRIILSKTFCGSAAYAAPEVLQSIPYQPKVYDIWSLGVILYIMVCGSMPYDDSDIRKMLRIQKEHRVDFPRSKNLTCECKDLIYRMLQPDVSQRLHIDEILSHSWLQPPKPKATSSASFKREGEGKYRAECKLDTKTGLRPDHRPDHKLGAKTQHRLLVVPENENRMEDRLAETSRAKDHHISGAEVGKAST"}, "HIPK1(h)": {"biological_target": "HIPK1(h) (Homo sapiens, UniProt Q86Z02)", "sequence (Q86Z02 whole entry)": "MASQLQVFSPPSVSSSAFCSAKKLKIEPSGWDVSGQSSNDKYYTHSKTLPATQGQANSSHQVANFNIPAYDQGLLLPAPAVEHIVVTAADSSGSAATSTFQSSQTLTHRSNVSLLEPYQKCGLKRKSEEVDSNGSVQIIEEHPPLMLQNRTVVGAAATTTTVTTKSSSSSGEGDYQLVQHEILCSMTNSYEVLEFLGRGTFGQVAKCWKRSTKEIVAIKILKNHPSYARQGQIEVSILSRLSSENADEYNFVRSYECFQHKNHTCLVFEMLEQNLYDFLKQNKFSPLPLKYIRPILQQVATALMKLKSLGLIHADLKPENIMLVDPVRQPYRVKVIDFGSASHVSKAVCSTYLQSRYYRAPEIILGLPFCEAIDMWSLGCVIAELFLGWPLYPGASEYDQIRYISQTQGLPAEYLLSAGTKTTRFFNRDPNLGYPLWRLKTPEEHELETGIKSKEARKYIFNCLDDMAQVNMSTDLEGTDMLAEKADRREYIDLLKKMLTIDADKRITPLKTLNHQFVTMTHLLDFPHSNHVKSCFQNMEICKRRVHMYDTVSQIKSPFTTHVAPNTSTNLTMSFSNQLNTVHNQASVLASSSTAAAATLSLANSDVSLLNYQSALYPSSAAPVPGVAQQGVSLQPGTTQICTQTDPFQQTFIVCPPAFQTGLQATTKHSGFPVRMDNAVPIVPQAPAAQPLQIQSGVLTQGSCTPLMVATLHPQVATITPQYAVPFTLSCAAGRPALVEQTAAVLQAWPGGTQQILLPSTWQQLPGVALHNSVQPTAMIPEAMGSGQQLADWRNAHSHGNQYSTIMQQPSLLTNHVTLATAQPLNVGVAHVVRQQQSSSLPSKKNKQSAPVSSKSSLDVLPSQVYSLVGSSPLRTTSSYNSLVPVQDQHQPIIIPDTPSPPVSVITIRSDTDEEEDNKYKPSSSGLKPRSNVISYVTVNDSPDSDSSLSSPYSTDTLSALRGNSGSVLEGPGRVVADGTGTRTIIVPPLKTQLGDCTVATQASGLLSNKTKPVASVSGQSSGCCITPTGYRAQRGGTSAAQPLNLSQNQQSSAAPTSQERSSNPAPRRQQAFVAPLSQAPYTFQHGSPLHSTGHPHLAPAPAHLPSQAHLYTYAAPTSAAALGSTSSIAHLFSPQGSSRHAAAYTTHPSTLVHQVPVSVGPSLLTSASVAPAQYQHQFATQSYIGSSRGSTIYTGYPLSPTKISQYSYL"}}, "data": [{"sequence": "FAKLAARLYRKALARQLGVAA [MMI-0300]", "values": [{"measurement": "% activity", "setting": "ARK5(h)", "value": 78, "unit": "%"}, {"measurement": "% activity", "setting": "CaMKI(h)", "value": 1, "unit": "%"}, {"measurement": "% activity", "setting": "TAO2(h)", "value": 70, "unit": "%"}, {"measurement": "% activity", "setting": "MST2(h)", "value": 19, "unit": "%"}, {"measurement": "% activity", "setting": "TSSK2(h)", "value": 98, "unit": "%"}, {"measurement": "% activity", "setting": "HIPK1(h)", "value": 74, "unit": "%"}]}, {"sequence": "KAFAKLAARLYRKALARQLGVAA [MMI-0400]", "values": [{"measurement": "% activity", "setting": "ARK5(h)", "value": 69, "unit": "%"}, {"measurement": "% activity", "setting": "CaMKI(h)", "value": 0, "unit": "%"}, {"measurement": "% activity", "setting": "TAO2(h)", "value": 74, "unit": "%"}, {"measurement": "% activity", "setting": "MST2(h)", "value": 11, "unit": "%"}, {"measurement": "% activity", "setting": "TSSK2(h)", "value": 94, "unit": "%"}, {"measurement": "% activity", "setting": "HIPK1(h)", "value": 91, "unit": "%"}]}, {"sequence": "HRRIKAWLKKIKALARQLGVAA [MMI-0500]", "values": [{"measurement": "% activity", "setting": "ARK5(h)", "value": 20, "unit": "%"}, {"measurement": "% activity", "setting": "CaMKI(h)", "value": "−1", "unit": "%"}, {"measurement": "% activity", "setting": "TAO2(h)", "value": 15, "unit": "%"}, {"measurement": "% activity", "setting": "MST2(h)", "value": 2, "unit": "%"}, {"measurement": "% activity", "setting": "TSSK2(h)", "value": 92, "unit": "%"}, {"measurement": "% activity", "setting": "HIPK1(h)", "value": 47, "unit": "%"}]}, {"sequence": "YARAAARQARAKALNRQLGVA [MMI-0200]", "values": [{"measurement": "% activity", "setting": "ARK5(h)", "value": 93, "unit": "%"}, {"measurement": "% activity", "setting": "CaMKI(h)", "value": 21, "unit": "%"}, {"measurement": "% activity", "setting": "TAO2(h)", "value": 93, "unit": "%"}, {"measurement": "% activity", "setting": "TSSK2(h)", "value": 91, "unit": "%"}]}]}
